Experimental data published in patent publication US20210087238A1, “CELL PENETRATING PEPTIDES AND RELATED COMPOSITIONS AND METHODS” (Phylogica Limited, priority 2017, published 2021).

Biological target: MDM2 (UniProt Q00987)
Experiment: cell-based or functional assay

UniProt Q00987, sequence (Q00987 whole entry): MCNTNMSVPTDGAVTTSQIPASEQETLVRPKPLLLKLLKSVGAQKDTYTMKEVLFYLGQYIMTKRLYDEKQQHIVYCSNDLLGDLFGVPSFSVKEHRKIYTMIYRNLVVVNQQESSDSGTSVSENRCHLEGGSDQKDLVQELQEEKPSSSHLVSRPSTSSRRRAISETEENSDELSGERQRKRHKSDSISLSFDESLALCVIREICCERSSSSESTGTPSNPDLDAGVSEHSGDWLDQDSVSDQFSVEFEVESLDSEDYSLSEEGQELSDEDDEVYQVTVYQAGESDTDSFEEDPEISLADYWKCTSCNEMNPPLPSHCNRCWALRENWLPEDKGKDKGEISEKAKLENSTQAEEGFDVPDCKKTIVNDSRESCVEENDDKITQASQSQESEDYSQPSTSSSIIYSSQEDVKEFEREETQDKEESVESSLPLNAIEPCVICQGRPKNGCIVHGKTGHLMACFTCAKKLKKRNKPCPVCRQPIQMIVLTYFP

TAT_^DPMIα (peptide)
IC50, viability of T47D cells after 48 h (resazurin reduction): 36.6 µM
